# B1: LGI1 (wild type, pull-down with ADAM22/23 ECD-FLAG) [human] / ADAM23 ECD-FLAG [human] (parent complex)
# chain 1: KKPAKPKCPAVCTCTKDNALCENARSIPRTVPPDVISLSFVRSGFTEISEGSFLFTPSLQLLLFTSNSFDVISDDAFIGLPHLEYLFIENNNIKSISRHTFRGLKSLIHLSLANNNLQTLPKDIFKGLDSLTNVDLRGNSFNCDCKLKWLVEWLGHTNATVEDIYCEGPPEYKKRKINSLSSKDFDCIITEFAKSQDLPYQSLSIDTFSYLNDEYVVIAQPFTGKCIFLEWDHVEKTFRNYDNITGTSTVVCKPIVIETQLYVIVAQLFGGSHIYKRDSFANKFIKIQDIEILKIRKPNDIETFKIENNWYFVVADSSKAGFTTIYKWNGNGFYSHQSLHAWYRDTDVEYLEIVRTPQTLRTPHLILSSSSQRPVIYQWNKATQLFTNQTDIPNMEDVYAVKHFSVKGDVYICLTRFIGDSKVMKWGGSSFQDIQRMPSRGSMVFQPLQINNYQYAILGSDYSFTQVYNWDAEKAKFVKFQELNVQAPRSFTHVSINKRNFLFASSFKGNTQIYKHVIVDLSA
# chain 2: AVNPSRGIFEEMKYLELMIVNDHKTYKKHRSSHAHTNNFAKSVVNLVDSIYKEQLNTRVVLVAVETWTEKDQIDITTNPVQMLHEFSKYRQRIKQHADAVHLISRVTFHYKRSSLSYFGGVCSRTRGVGVNEYGLPMAVAQVLSQSLAQNLGIQWEPSSRKPKCDCTESWGGCIMEETGVSHSRKFSKCSILEYRDFLQRGGGACLFNRPTKLFEPTECGNGYVEAGEECDCGFHVECYGLCCKKCSLSNGAHCSDGPCCNNTSCLFQPRGYECRDAVNECDITEYCTGDSGQCPPNLHKQDGYACNQNQGRCYNGECKTRDNQCQYIWGTKAAGSDKFCYEKLNTEGTEKGNCGKDGDRWIQCSKHDVFCGFLLCTNLTRAPRIGQLQGEIIPTSFYHQGRVIDCSGAHVVLDDDTDVGYVEDGTPCGPSMMCLDRKCLQIQALNMSSCPLDSKGKVCSGHGVCSNEATCICDFTWAGTDCSIRDPVRNLHPPKDEGPKGPSA
# B2: LGI1 (wild type, pull-down with ADAM22/23 ECD-FLAG) [human] / ADAM22 ECD-FLAG [human] (parent complex)
# chain 1: B1 chain 1
# chain 2: SKRQLRRYPRNVEEETKYIELMIVNDHLMFKKHRLSVVHTNTYAKSVVNMADLIYKDQLKTRIVLVAMETWATDNKFAISENPLITLREFMKYRRDFIKEKSDAVHLFSGSQFESSRSGAAYIGGICSLLKGGGVNEFGKTDLMAVTLAQSLAHNIGIISDKRKLASGECKCEDTWSGCIMGDTGYYLPKKFTQCNIEEYHDFLNSGGGACLFNKPSKLLDPPECGNGFIETGEECDCGTPAECVLEGAECCKKCTLTQDSQCSDGLCCKKCKFQPMGTVCREAVNDCDIRETCSGNSSQCAPNIHKMDGYSCDGVQGICFGGRCKTRDRQCKYIWGQKVTASDKYCYEKLNIEGTEKGNCGKDKDTWIQCNKRDVLCGYLLCTNIGNIPRLGELDGEITSTLVVQQGRTLNCSGGHVKLEEDVDLGYVEDGTPCGPQMMCLEHRCLPVASFNFSTCLSSKEGTICSGNGVCSNELKCVCNRHWIGSDCNTYFPHNDDAKTGITLSG
# Variants of: B1
# Test: pull-down; anti-FLAG antibody agarose; proteins secreted from HEK293T cells; n = 4 independent experiments; read off a plot
row,percent of parent,Variant
1,~46 % of WT,chain 1 KKPAKPKCPAVCTCTKDNALCENARSIPRTVPPDVISLSFVRSGFTEISEGSFLFTPSLQLLLFTSNSFDVISDDAFIGLPHLEYLFIENNNIKSISRHTFRGLKSLIHLSLANNNLQTLPKDIFKGLDSLTNVDLRGNSFNCDCKLKWLVEWLGHTNATVEDIYCEGPPEYKKRKINSLSSKDFDCIITEFAKSQDLPYQSLSIDTFSYLNDEYVVIAQPFTGKCIFLEWDHVEKTFRNYDNITGTSTVVCKPIVIETQLYVIVAQLFGGSHIYKRDSFANKFIKIQDIEILKIRAPNDIETFKIENNWYFVVADSSKAGFTTIYKWNGNGFYSHQSLHAWYRDTDVEYLEIVRTPQTLRTPHLILSSSSQRPVIYQWNKATQLFTNQTDIPNMEDVYAVKHFSVKGDVYICLTRFIGDSKVMKWGGSSFQDIQRMPSRGSMVFQPLQINNYQYAILGSDYSFTQVYNWDAEKAKFVKFQELNVQAPRSFTHVSINKRNFLFASSFKGNTQIYKHVIVDLSA [chain 1 K297A]
2,~14 % of WT,chain 1 KKPAKPKCPAVCTCTKDNALCENARSIPRTVPPDVISLSFVRSGFTEISEGSFLFTPSLQLLLFTSNSFDVISDDAFIGLPHLEYLFIENNNIKSISRHTFRGLKSLIHLSLANNNLQTLPKDIFKGLDSLTNVDLRGNSFNCDCKLKWLVEWLGHTNATVEDIYCEGPPEYKKRKINSLSSKDFDCIITEFAKSQDLPYQSLSIDTFSYLNDEYVVIAQPFTGKCIFLEWDHVEKTFRNYDNITGTSTVVCKPIVIETQLYVIVAQAFGGSHIYKRDSFANKFIKIQDIEILKIRKPNDIETFKIENNWYFVVADSSKAGFTTIYKWNGNGFYSHQSLHAWYRDTDVEYLEIVRTPQTLRTPHLILSSSSQRPVIYQWNKATQLFTNQTDIPNMEDVYAVKHFSVKGDVYICLTRFIGDSKVMKWGGSSFQDIQRMPSRGSMVFQPLQINNYQYAILGSDYSFTQVYNWDAEKAKFVKFQELNVQAPRSFTHVSINKRNFLFASSFKGNTQIYKHVIVDLSA [chain 1 L268A]

# Variants of: B2
# Test: as above
row,percent of parent,Variant
1,~35 % of WT,chain 1 KKPAKPKCPAVCTCTKDNALCENARSIPRTVPPDVISLSFVRSGFTEISEGSFLFTPSLQLLLFTSNSFDVISDDAFIGLPHLEYLFIENNNIKSISRHTFRGLKSLIHLSLANNNLQTLPKDIFKGLDSLTNVDLRGNSFNCDCKLKWLVEWLGHTNATVEDIYCEGPPEYKKRKINSLSSKDFDCIITEFAKSQDLPYQSLSIDTFSYLNDEYVVIAQPFTGKCIFLEWDHVEKTFRNYDNITGTSTAVCKPIVIETQLYVIVAQLFGGSHIYKRDSFANKFIKIQDIEILKIRKPNDIETFKIENNWYFVVADSSKAGFTTIYKWNGNGFYSHQSLHAWYRDTDVEYLEIVRTPQTLRTPHLILSSSSQRPVIYQWNKATQLFTNQTDIPNMEDVYAVKHFSVKGDVYICLTRFIGDSKVMKWGGSSFQDIQRMPSRGSMVFQPLQINNYQYAILGSDYSFTQVYNWDAEKAKFVKFQELNVQAPRSFTHVSINKRNFLFASSFKGNTQIYKHVIVDLSA [chain 1 V250A]
2,~15 % of WT,"chain 1 KKPAKPKCPAVCTCTKDNALCENARSIPRTVPPDVISLSFVRSGFTEISEGSFLFTPSLQLLLFTSNSFDVISDDAFIGLPHLEYLFIENNNIKSISRHTFRGLKSLIHLSLANNNLQTLPKDIFKGLDSLTNVDLRGNSFNCDCKLKWLVEWLGHTNATVEDIYCEGPPEYKKRKINSLSSKDFDCIITEFAKSQDLPYQSLSIDTFSYLNDEYVVIAQPFTGKCIFLEWDHVEKTFRNYDNITGTSTVVCKPIVIETQLYVIVAQLFGGSHIYKRDSFANKFIKIQDIEILKIAAPNDIETFKIENNWYFVVADSSKAGFTTIYKWNGNGFYSHQSLHAWYRDTDVEYLEIVRTPQTLRTPHLILSSSSQRPVIYQWNKATQLFTNQTDIPNMEDVYAVKHFSVKGDVYICLTRFIGDSKVMKWGGSSFQDIQRMPSRGSMVFQPLQINNYQYAILGSDYSFTQVYNWDAEKAKFVKFQELNVQAPRSFTHVSINKRNFLFASSFKGNTQIYKHVIVDLSA [chain 1 R296A, chain 1 K297A]"
3,~4 % of WT,chain 1 KKPAKPKCPAVCTCTKDNALCENARSIPRTVPPDVISLSFVRSGFTEISEGSFLFTPSLQLLLFTSNSFDVISDDAFIGLPHLEYLFIENNNIKSISRHTFRGLKSLIHLSLANNNLQTLPKDIFKGLDSLTNVDLRGNSFNCDCKLKWLVEWLGHTNATVEDIYCEGPPEYKKRKINSLSSKDFDCIITEFAKSQDLPYQSLSIDTFSYLNDEYVVIAQPFTGKCIFLEWDHVEKTFRNYDNITGTSTVVCKPIVIETQLYVIVAQLFGGSHIYKRDSFANKFIKIQDIEILKIRKPNDIETFKIENNWYFVVADSSKAGFTTIYKWNGNGFYSHQSLHAWYRDTDVEYLEIVRTPQTLRTPHLILSSSSQRPVIYQWNKATQLFTNQTDIPNMEDVAAVKHFSVKGDVYICLTRFIGDSKVMKWGGSSFQDIQRMPSRGSMVFQPLQINNYQYAILGSDYSFTQVYNWDAEKAKFVKFQELNVQAPRSFTHVSINKRNFLFASSFKGNTQIYKHVIVDLSA [chain 1 Y399A]

# From PMC5906670, “Structural basis of epilepsy-related ligand–receptor complex LGI1–ADAM22” (Nature Communications, 2018)
